# Results: US9315837B2, “Desaturases of a green microalga and uses thereof” (Ben Gurion University of the Negev Research and Development …, priority 2010, dated 2016)
# System: supplied fatty acids in S. cerevisiae strain W303
# Assay: Functional expression of PiELO1 in S. cerevisiae fed with fatty acids, GC of FAMEs
# Format: cell-based, Saccharomyces cerevisiae
# Description: The ORF encoding for PiELO1 was amplified using PfuUltra II fusion HS DNA polymerase (Stratagene, La Jolla, Calif.) with the forward primer, 5′-[…] (PUFAEL5RES1) (SEQ ID NO: 33), containing a restriction site (underlined) and a yeast translation consensus followed by ATG (double underlined) and the reverse primer 5′-[…] (PUFAEL3RES2) (SEQ ID NO: 34) containing a restriction site (underlined) and a stop codon (double underlined). The amplified sequence was then restricted with EcoRI and XbaI (NEB, Ipswich, Mass.). The expected bands were gel-purified with NucleoSpin Extract II purification kit (Machery-Nagel GmbH, Duren, Germany) and ligated into a EcoRI-Xba1 cut pYES2 vector, yielding YpPiELO1. Saccharomyces cerevisiae strain W303 was transformed with YpPiELO1 by the PEG/lithium acetate method. The yeast cells harboring the empty pYES2 vector were used as control. Transformants were selected by uracil prototrophy on yeast synthetic medium (YSM) lacking uracil (Invitrogen, Carlsbad, Calif.). For functional expression, a minimal selection medium containing 2% (w/v) raffinose was inoculated with the YpPiELO1-transformants and grown at 27° C. for 24 h in a water bath shaker. Five ml of sterile YSM, containing 1% (w/v) Tergitol-40 and 250 µM of the appropriate fatty acid was inoculated with raffinose-grown cultures to obtain an OD of 0.2 at 600 nm. Expression was induced by adding galactose to a final concentration of 2% (w/v) and cultures were further grown at 27° C. for 48 h. Cells were harvested by centrifugation, washed twice with 0.1% NaHCO3, freeze-dried and used for fatty acid analysis.
# Fatty acid methyl esters (FAMES) were obtained by transmethylation of the freeze-dried P. incisa or yeast biomass, with dry methanol containing 2% H2SO4 (v/v) and heating at 80° C. for 1.5 h while stirring under an argon atmosphere. Gas chromatographic analysis of FAMES was performed on a Thermo Ultra Gas chromatograph (Thermo Scientific, Italy) equipped with PTV injector, FID detector and a fused silica capillary column (30 m×0.32 mm; ZB WAXplus, Phenomenex). FAMES were identified by co-chromatography with authentic standards (Sigma Chemical Co., St. Louis, Mo.; Larodan Fine Chemicals, Malmo, Sweden) and FAME of fish oil (Larodan Fine Chemicals). Each sample was analyzed in duplicates of three independent experiments. The structures of fatty acids were confirmed by GC-MS of their pyrrolidine derivatives [W. W. Christie, The analysis of fatty acids in: W. W. Christie (Ed.), Lipid analysis Isolation, separation, identification and structural analysis of lipids, vol. […]
molecule,measurement,setting,value
"PiELO1: P. incisa Δ6 PUFA elongase, 289 amino acid residues, SEQ ID NO: 7 (protein, listed as Parietochloris incisa) MALTAAWHKYDAIVSRFVFDGLRRVGLQEIQGHPSVITAHLPFIASPTPQVTFVLAYLLIVVCGVAALRTRKSSAPREDPAWLRLLVQAHNLVLISLSAYMSSAACYYAWKYGYRFWGTNYSPKERDMGGLIYTFYVSKLYEFVDTLIMLLKGKVEQVSFLHVYHHASISTIWWAIAYVAPGGDAWYCCFLNSLVHVLMYTYYLLATLLGKDAKARRKYLWWGRYLTQFQMFQFVTMMLEAAYTWAYSPYPKFLSKLLFFYMITLLALFANFYAQKHGSSRAAKQKLQ",elongation of supplied fatty acid,"substrate 18:3ω6 (GLA), product DGLA, 20:3ω6",elongated
same,elongation of supplied fatty acid,"substrate 18:4ω3 (STA), product 20:4ω3",elongated
same,elongation of supplied fatty acid,substrate ARA,did not result in their elongation
same,elongation of supplied fatty acid,substrate LA,did not result in their elongation
